Experimental data taken from patent US20260227403A1 (HENRY M JACKSON FOUNDATION FOR THE ADVANCEMENT OF MILITARY …, published 2026).

Legend:
Test in all cases: ELISA: 500 ng peptide coated per well, 29E4 at 40 ng/mL, HRP goat anti-rabbit Ig 1:16,000, ABS 450 nm, duplicates [CONT. 2]
[1] = molecular target: T1, P2 (alanine substituted, FIG. 3 panel E)
T1 construct: not the overlapping peptide P2 of panel A; also called Q212 to alanine
Description: (§1) HRP Goat anti-rabbit Ig was applied at 1:16,000 dilution in all reactions.
(§2) Peptides were synthesized to achieve ≥70% HPLC purity by a commercial vendor (GenScript Biotech, Piscataway, NJ). Peptides were reconstituted in either water, or with addition of acetonitrile, methanol, 10% acetic acid, or DMSO, depending on the overall charge of each peptide. Key residues required for mAb binding were probed by ELISA using overlapping peptides, truncated peptides and alanine substituted peptides. Reactions were performed in duplicate using NUNC 96-well flatbottom MaxiSorp plates (Thermo Scientific). After coating each well with 500 ng of peptide in 100 μL coating buffer (50 mM NaHCO₃, pH 9.6), the plates were sealed and incubated at 4° C. overnight. […] Plates were then washed once with wash buffer, incubated with 100 μL mAb 29E4 (serially diluted from 1 mg/mL) for 1 hour at 37° C. Plates were further washed four times with wash buffer, and then incubated at 37° C. with 100 μL of a horse radish peroxidase (HRP)-conjugated secondary antibody against the primary antibody, diluted 1:16,000 according to manufacturer's protocols (KPL, Inc., Gaithersburg, MD). After washing four times with wash buffer, 100 μL of K-Blue Aqueous TMB substrate (Neogen, Lexington, KY) was added to the plates and incubated uncovered for 30 minutes at room temperature. To stop the reaction, 100 μL of 2 N Sulphuric acid was added to each well and absorbance were measured immediately at 450 nm. All dilutions of reagents were performed in ELISA diluent (20% NGS in 1×PBS with 0.1% Triton-X 100).

[2] = molecular target: T2, P3 (alanine substituted, FIG. 3 panel E)
T2 construct: not the overlapping peptide P3 of panel A; also called R213 to alanine
T2 sequence (peptide, as listed by the source): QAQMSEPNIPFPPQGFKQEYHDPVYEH
Description: as §1, §2

[3] = molecular target: T3, P4 (alanine substituted, FIG. 3 panel E)
T3 construct: not the overlapping peptide P4 of panel A; also called Q214 to alanine
T3 sequence (peptide, as listed by the source): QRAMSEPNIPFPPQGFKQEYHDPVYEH
Description: as §1, §2

[4] = molecular target: T4, P5 (alanine substituted, FIG. 3 panel E)
T4 construct: not the overlapping peptide P5 of panel A; also called M215 to alanine
T4 sequence (peptide, as listed by the source): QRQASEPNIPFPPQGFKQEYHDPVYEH
Description: as §1, §2

[5] = molecular target: T5, P9 (alanine substituted, FIG. 3 panel E)
T5 construct: also called N219 to alanine
T5 sequence (peptide, as listed by the source): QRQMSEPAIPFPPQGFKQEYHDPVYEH
Description: as §1, §2

[6] = molecular target: T6, P10 (alanine substituted, FIG. 3 panel E)
T6 construct: also called I220 to alanine
T6 sequence (peptide, as listed by the source): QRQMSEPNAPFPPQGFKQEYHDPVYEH
Description: as §1, §2

[7] = molecular target: T7, P16 (alanine substituted, FIG. 3 panel E)
T7 construct: also called G226 to alanine
T7 sequence (peptide, as listed by the source): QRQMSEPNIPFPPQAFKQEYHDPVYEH
Description: as §1, §2

[8] = molecular target: T8, P18 (alanine substituted, FIG. 3 panel E)
T8 construct: also called K228 to alanine
T8 sequence (peptide, as listed by the source): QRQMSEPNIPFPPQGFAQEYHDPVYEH
Description: as §1, §2

[9] = molecular target: T9, P19 (alanine substituted, FIG. 3 panel E)
T9 construct: also called Q229 to alanine
T9 sequence (peptide, as listed by the source): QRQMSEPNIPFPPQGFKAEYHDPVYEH
Description: as §1, §2

[10] = molecular target: T10, P20 (alanine substituted, FIG. 3 panel E)
T10 construct: also called E230 to alanine
T10 sequence (peptide, as listed by the source): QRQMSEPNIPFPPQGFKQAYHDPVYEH
Description: as §1, §2

[11] = molecular target: T11, P21 (alanine substituted, FIG. 3 panel E)
T11 construct: also called Y231 to alanine
T11 sequence (peptide, as listed by the source): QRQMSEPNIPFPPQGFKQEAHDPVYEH
Description: as §1, §2

[12] = molecular target: T12, P22 (alanine substituted, FIG. 3 panel E)
T12 construct: also called H232 to alanine
T12 sequence (peptide, as listed by the source): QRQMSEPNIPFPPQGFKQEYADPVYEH
Description: as §1, §2

[13] = molecular target: T13, P23 (alanine substituted, FIG. 3 panel E)
T13 construct: also called D233 to alanine
T13 sequence (peptide, as listed by the source): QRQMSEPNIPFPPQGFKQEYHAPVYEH
Description: as §1, §2

[14] = molecular target: T14, P25 (alanine substituted, FIG. 3 panel E)
T14 construct: also called V235 to alanine
T14 sequence (peptide, as listed by the source): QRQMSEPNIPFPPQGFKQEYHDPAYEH
Description: as §1, §2

[15] = molecular target: T15, P27 (alanine substituted, FIG. 3 panel E)
T15 construct: also called E237 to alanine
T15 sequence (peptide, as listed by the source): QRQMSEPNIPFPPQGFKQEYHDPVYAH
Description: as §1, §2

Measured: binding result

T1 sequence (peptide, as listed by the source): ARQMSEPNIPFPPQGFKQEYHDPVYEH

B1: ETV1 rabbit monoclonal antibody (29E4) (antibody, V domains shown)
VH: QELEESGGDLVKPGASLTLTCTASGFFFSAENHICWVRQAPGKGLEWIGCVYIGSYVGGSGDPYYASWAKGRFTISKTSSTTVTLQMSSLTAADTATYFCARDLGSLWGPGTLVTVSS
VL: DVVMTQTASSVSAAVGGTVTIACQSSQSVYDNNNLAWFQQKPGQPPKRLIYSASTLASGVSSRFKGSGYGTQFTLTISDVQCDDAATYYCVGAFSGYIFVFGGGTEVVVK
notes: constant regions are not; also called 29E4 mAb; ETV1 29E4 mAb
binds: all assays above
